Reference: patent EP4772534A1 (Astellas Pharma, Inc., dated 2026)
Numbering of substitutions follows the chain as printed. Numbers in names are those of the source.

B1: LYS_E294Del_h1x (antibody, human IgG1, kappa)
heavy: QVQLVQSGAEVKKPGASVKVSCKASGYAFSSSWVNWVRQAPGQGLEWMGRIYPGDGDTDYNGKFKGRVTLTADKSTSTAYMELSSLRSEDTAVYYCARRRGYEAVFDYWGQGTLVTVSSASTKGPSVFPLAPSSKSTSGGTAALGCLVKDYFPEPVTVSWNSGALTSGVHTFPAVLQSSGLYSLSSVVTVPSSSLGTQTYICNVNHKPSNTKVDKKVEPKSCDKTHTCPPCPAPELLGGPSVFLFPPKPKDTLMISRTPEVTCVVVDVSHEDPEVKFNWYVDGVEVHNAKTKPREQYNSTYRVVSVLTVLHQDWLNGKEYKCKVSNKALPAPIEKTISKAKGQPREPQVYTLPPSRDELTKNQVSLTCLVKGFYPSDIAVEWESNGQPENNYKTTPPVLDSDGSFFLYSKLTVDKSRWQQGNVFSCSVMHEALHNHYTQKSLSLSPGK
light: DIQLTQSPSSLSASVGDRVTITCRASESVDNYDISFLNWFQQKPGKAPKLLIYAASNQGSGVPSRFSGSGSGTDFTLTISSLQPEDFATYYCQQSKEVPYTFGGGTKVEIKRTVAAPSVFIFPPSDEQLKSGTASVVCLLNNFYPREAKVQWKVDNALQSGNSQESVTEQDSKDSTYSLSSTLTLSKADYEKHKVYACEVTHQGLSSPVTKSFNRGEC
notes: Expressed in ExpiCHO-S cells without ST6GAL1 co-expression; also called anti-lysozyme antibody having the E294Del amino acid mutation in the human Igγ1 constant region
B2: LYS_1c3-m1_h10 (antibody, human IgG1, kappa)
heavy: not shown
light: B1 light
notes: human Igγ1 constant region, unmodified Fc; Expressed in ExpiCHO-S cells without ST6GAL1 co-expression; also called anti-lysozyme antibody having the human Igγ1 constant region (Fc non-variant)
B3: LYS_E294Del_LALA_h1x (antibody, human IgG1, kappa, L234A L235A)
heavy: B1 heavy with L236A, L237A
light: B1 light
notes: Expressed in ExpiCHO-S cells without ST6GAL1 co-expression; also called anti-lysozyme antibody having the L234A/L235A/E294Del amino acid mutations in the human Igγ1 constant region

Target: T1, human FcγRI (human, UniProt P12314 16-288, limits assumed)
T1 construct: Construct used in the Biacore assay (source, tag, limits) is not described; also called human FcyRI
Assay: Biacore T200 (SPR)

T1 sequence (P12314 16-288 limits assumed): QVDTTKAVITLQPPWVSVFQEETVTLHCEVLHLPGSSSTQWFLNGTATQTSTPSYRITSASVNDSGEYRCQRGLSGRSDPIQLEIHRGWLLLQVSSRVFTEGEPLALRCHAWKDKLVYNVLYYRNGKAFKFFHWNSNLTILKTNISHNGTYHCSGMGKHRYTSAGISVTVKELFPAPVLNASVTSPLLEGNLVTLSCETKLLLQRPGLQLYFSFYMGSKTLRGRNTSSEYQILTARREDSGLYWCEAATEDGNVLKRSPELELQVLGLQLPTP

binding result	Binder
binds	B1
binds	B2
no binding	B3
